{
  "source": "the supplement of paper PMC10724198",
  "note": "± gives the standard deviation of the averaged measurements.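 Further: PSI is a weighted mean of sequencing reads over stability bins, variants kept only with over 10 reads, mCherry proximal and sfGFP distal, peptide attached via GGGS linker.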",
  "data": [
    {"tested_on": "Saccharomyces cerevisiae", "test": "protein stability index of tFT-peptide fusion (C-terminal peptide) (PSI (0-1 scale)); higher = more stable (slower turnover)", "conditions": "genetic background: das1 deletion; temperature: 30 C", "protocol": "(§1)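 MPS profiling in S. cerevisiae of the tFT-X12 degron library: putative degron peptides plus stable controls, 12 aa, fused to the C-terminus of a sfGFP-mCherry timer. Cells are FACS-sorted into 8 mCherry/sfGFP bins and deep-sequenced. PSI runs from 0 (unstable) to 1 (stable). Backgrounds are wild type, das1Δ and doa10Δ at 30 °C, and wild type, das1Δ, cdc34-1 and cdc53-1 at 37 °C; 2-3 technical replicates each.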", "values": [
      {"sequence": "ACSRKPIWVTWL", "protein stability index": "0.648 ± 0.023"},
      {"sequence": "AFLLVLFCCVSC", "protein stability index": "0.252 ± 0.023"},
      {"sequence": "AFLWSLFVFFRF", "protein stability index": "0.31 ± 0.035"},
      {"sequence": "AFVVPLFLCCCG", "protein stability index": "0.212 ± 0.025"},
      {"sequence": "AFYLCLYFMPVS", "protein stability index": "0.371 ± 0.028"},
      {"sequence": "AGAFRIVWWALR", "protein stability index": "0.578 ± 0.027"},
      {"sequence": "ALFLLWVVMHDV", "protein stability index": "0.247 ± 0.036"},
      {"sequence": "ALLWEFVPCSVR", "protein stability index": "0.354 ± 0.036"},
      {"sequence": "ALRGLWFPFSCL", "protein stability index": "0.68 ± 0.024"},
      {"sequence": "ALRLPPPPFSLY", "protein stability index": "0.561 ± 0.05"},
      {"sequence": "ALSGLARFIVCH", "protein stability index": "0.272 ± 0.043"},
      {"sequence": "ALVGEVLWFQLV", "protein stability index": "0.651 ± 0.023"},
      {"sequence": "APLLPPALALTC", "protein stability index": "0.389 ± 0.034"},
      {"sequence": "APPSFPPLLLLS", "protein stability index": "0.6054 ± 0.002"},
      {"sequence": "AQCRGGGLSGVG", "protein stability index": "0.566 ± 0.016"},
      {"sequence": "ARGVAAAFVSGF", "protein stability index": "0.657 ± 0.03"},
      {"sequence": "ARRGHNCAAVFL", "protein stability index": "0.666 ± 0.026"},
      {"sequence": "ARTWVVLLICGH", "protein stability index": "0.355 ± 0.032"},
      {"sequence": "ASWRYMFPVTLG", "protein stability index": "0.555 ± 0.039"},
      {"sequence": "AVCVVVMAVFVG", "protein stability index": "0.297 ± 0.028"},
      {"sequence": "CASVCCFFAWIV", "protein stability index": "0.46 ± 0.046"},
      {"sequence": "CCVFFLLCLSLF", "protein stability index": "0.341 ± 0.01"},
      {"sequence": "CFFGFRAGLFLG", "protein stability index": "0.593 ± 0.018"},
      {"sequence": "CFFVSLFFYIDC", "protein stability index": "0.215 ± 0.021"},
      {"sequence": "CFGSALLKCWLC", "protein stability index": "0.665 ± 0.013"},
      {"sequence": "CFLSWSLRFFIL", "protein stability index": "0.482 ± 0.031"},
      {"sequence": "CFVRCFVSIRLF", "protein stability index": "0.163 ± 0.019"},
      {"sequence": "CGGLFDVALGVG", "protein stability index": "0.449 ± 0.01"},
      {"sequence": "CGGVQVWRVKVV", "protein stability index": "0.605 ± 0.011"},
      {"sequence": "CGSFWVNVLCAV", "protein stability index": "0.334 ± 0.035"},
      {"sequence": "CILYLSWIIFRA", "protein stability index": "0.198 ± 0.041"},
      {"sequence": "CLCLICFLCWFA", "protein stability index": "0.408 ± 0.0097"},
      {"sequence": "CLLDVVMVVERG", "protein stability index": "0.347 ± 0.032"},
      {"sequence": "CPMFVKFFFCLY", "protein stability index": "0.465 ± 0.036"},
      {"sequence": "CRGLSWRMITCL", "protein stability index": "0.484 ± 0.016"},
      {"sequence": "CRLRYSILWFRL", "protein stability index": "0.245 ± 0.033"},
      {"sequence": "CRRQLKVLKSMS", "protein stability index": "0.653 ± 0.023"},
      {"sequence": "CSFHFSLFFLRV", "protein stability index": "0.356 ± 0.027"},
      {"sequence": "CSRVVGLFFLVV", "protein stability index": "0.427 ± 0.04"},
      {"sequence": "CVCLWCFLVWAR", "protein stability index": "0.259 ± 0.025"},
      {"sequence": "CVCPFCVWVSCL", "protein stability index": "0.51 ± 0.027"},
      {"sequence": "CVSFFRCLFLIV", "protein stability index": "0.302 ± 0.028"},
      {"sequence": "CWYVCSFWPYVV", "protein stability index": "0.548 ± 0.022"},
      {"sequence": "DAGSSYRFFRFI", "protein stability index": "0.661 ± 0.011"},
      {"sequence": "DFFTSFSLFFFL", "protein stability index": "0.635 ± 0.036"},
      {"sequence": "DLIGSVRRLFCV", "protein stability index": "0.621 ± 0.014"},
      {"sequence": "DLLKAILKIKSL", "protein stability index": "0.6279 ± 0.0037"},
      {"sequence": "DLQTVGLTRFIV", "protein stability index": "0.621 ± 0.022"},
      {"sequence": "DLRRYRTLIPCK", "protein stability index": "0.288 ± 0.034"},
      {"sequence": "DPKQVRIQSSWL", "protein stability index": "0.644 ± 0.042"},
      {"sequence": "DVLLVVVLGRFL", "protein stability index": "0.344 ± 0.03"},
      {"sequence": "DVPLFLPLPVSV", "protein stability index": "0.278 ± 0.032"},
      {"sequence": "ELDVRPMVFLVA", "protein stability index": "0.346 ± 0.038"},
      {"sequence": "ESRDRRVGIANW", "protein stability index": "0.647 ± 0.0092"},
      {"sequence": "FACLTPFCLCLT", "protein stability index": "0.422 ± 0.015"},
      {"sequence": "FALFCFVIFMSR", "protein stability index": "0.245 ± 0.081"},
      {"sequence": "FAVTRVHLACWG", "protein stability index": "0.368 ± 0.033"},
      {"sequence": "GFLGMFFFWFAL", "protein stability index": "0.4628 ± 0.0043"},
      {"sequence": "GGGGMGRRVGVG", "protein stability index": "0.396 ± 0.0093"},
      {"sequence": "LCLPLYIRILSF", "protein stability index": "0.145 ± 0.03"},
      {"sequence": "LPPTPPLSPPPH", "protein stability index": "0.435 ± 0.028"},
      {"sequence": "LSPRPPAPYYSP", "protein stability index": "0.662 ± 0.041"},
      {"sequence": "PSPHRAPPGGHP", "protein stability index": "0.6636 ± 0.0019"},
      {"sequence": "RKKIRTYINENV", "protein stability index": "0.612 ± 0.018"},
      {"sequence": "RPPPTPRSVLLN", "protein stability index": "0.668 ± 0.011"},
      {"sequence": "SVPCWVFLFCLA", "protein stability index": "0.281 ± 0.03"},
      {"sequence": "TWGGGRVSLGGG", "protein stability index": "0.361 ± 0.013"},
      {"sequence": "VCNSIPLTPPPA", "protein stability index": "0.618 ± 0.025"},
      {"sequence": "VSGITLPFLMFH", "protein stability index": "0.348 ± 0.022"},
      {"sequence": "VSGSFRVCFRVW", "protein stability index": "0.521 ± 0.032"},
      {"sequence": "VWWWGGVGWLMV", "protein stability index": "0.52 ± 0.01"},
      {"sequence": "YVLLDFFFFFLV", "protein stability index": "0.24 ± 0.017"}
    ]},
    {"tested_on": "Saccharomyces cerevisiae", "test": "protein stability index of tFT-peptide fusion (C-terminal peptide) (PSI (0-1 scale)); higher = more stable (slower turnover)", "conditions": "genetic background: das1 deletion; temperature: 37 C", "protocol": "as §1", "values": [
      {"sequence": "AAVQVCVLLLLL", "protein stability index": "0.521 ± 0.014"}
    ]}
  ]
}
